Tested on: FasR wild-type (FasRwt) (Mycobacterium tuberculosis H37Rv)
Test: EMSA

Substance: PfasMT promoter fragment (398 bp)
- Kd: 83 nM
